According to paper PMC9456098, “Crystal Structure of the Recombination Mediator Protein RecO from Campylobacter jejuni and Its Interaction with DNA and a Zinc Ion”:

T1: cjRecO (Campylobacter jejuni subsp. jejuni ATCC …, UniProt Q0PC17 1-204)
T1 sequence: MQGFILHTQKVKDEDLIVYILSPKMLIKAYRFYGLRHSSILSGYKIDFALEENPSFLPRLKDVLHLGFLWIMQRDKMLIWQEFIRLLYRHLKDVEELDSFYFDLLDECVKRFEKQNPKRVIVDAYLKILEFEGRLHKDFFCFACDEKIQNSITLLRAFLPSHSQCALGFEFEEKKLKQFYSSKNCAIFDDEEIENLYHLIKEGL


Tests used:
[1] = test system: cjSSB (Campylobacter jejuni (strain ATCC 33291?)); experiment: fluorescence polarization; conditions: FP: 20 mM Tris pH 8.0, 30 mM NaCl, 5 mM beta-mercaptoethanol, 0.8 nM fluorescein-ssDNA; temperature not stated; one-site model
cjRecO = target: T1, cjRecO; experiment: fluorescence polarization; no saturation up to 100 uM; binding detectable from ~1 uM; Kd stated as at least 20 uM; FP: 20 mM Tris pH 8.0, 30 mM NaCl, 5 mM beta-mercaptoethanol, 0.8 nM fluorescein-ssDNA; temperature not stated; one-site model; conditions: protein: recombinant; tags: N-terminal His6 removed by thrombin (tag-free); single strand

Molecule | Kd [1] [nM] | Kd (cjRecO) [nM]
TTATAGGCATATAGGAGTAATTTTCTTGGGCTATGCAGTA [40-mer ssDNA] | 21.4 | 
TTATAGGCATATAGGAGTAATTTTCTTGGGCTATGCAGTA (ssDNA) [40-mer ssDNA] |  | > 20000
